Reference: patent publication US20090041784A1 (Amgen, published 2009)
Substitutions are numbered along the chain they refer to. Where two headings read alike, the source gives them in different places.

Tests used:
human glucagon receptor [1] = biological target: T1, human glucagon receptor (human, UniProt P47871 26-477); assay: cell-based or functional assay
[2] = biological target: T2, chimera-15 (amino acids 80-119 from human GCGR, remainder from human GLP-1 receptor) (human, UniProt P43220 24-83; P43220 125-463); assay: FMAT on cells expressing the chimeric receptor
T2 construct: Expressed on cells; not shown: in-frame C-terminal fluorescent protein, not identified

[3] = biological target: T3, chimera-8 (amino acids 80-477 from human GCGR, remainder from human GLP-1 receptor) (human, UniProt P43220 24-83); assay: FMAT on cells expressing the chimeric receptor
T3 construct: Expressed on cells; not shown: in-frame C-terminal fluorescent protein, not identified

[4] = biological target: T4, chimera-10 (amino acids 80-142 from human GCGR, remainder from human GLP-1 receptor) (human, UniProt P43220 24-83; P43220 146-463); assay: FMAT on cells expressing the chimeric receptor
T4 construct: Expressed on cells; not shown: in-frame C-terminal fluorescent protein, not identified

rat glucagon receptor [5] = biological target: T5, rat glucagon receptor (rat (Rattus norvegicus), UniProt P30082 27-485); assay: Schild analysis of glucagon dose-response curves (cAMP HTRF) on CHO K1 cells expressing the receptor
T5 construct: also called rat GCGR

[6] = biological target: T6, cynomolgus glucagon receptor (cynomolgus (Macaca fascicularis), UniProt P47871 26-477 (human entry)); assay: as above
T6 construct: also called cynomolgus GCGR; Cynomolgus Monkey
T6 chain: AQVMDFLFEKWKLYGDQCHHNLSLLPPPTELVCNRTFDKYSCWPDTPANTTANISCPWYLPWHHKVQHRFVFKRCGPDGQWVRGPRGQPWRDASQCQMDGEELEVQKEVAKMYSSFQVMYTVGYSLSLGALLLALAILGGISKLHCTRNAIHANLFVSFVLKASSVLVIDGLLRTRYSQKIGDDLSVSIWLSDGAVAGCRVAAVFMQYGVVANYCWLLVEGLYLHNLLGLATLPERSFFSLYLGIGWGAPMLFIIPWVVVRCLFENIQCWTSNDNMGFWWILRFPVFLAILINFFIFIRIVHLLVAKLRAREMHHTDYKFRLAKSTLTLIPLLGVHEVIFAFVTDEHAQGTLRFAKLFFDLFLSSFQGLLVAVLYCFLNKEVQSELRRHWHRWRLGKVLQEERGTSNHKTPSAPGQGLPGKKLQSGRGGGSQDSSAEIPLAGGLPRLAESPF

human glucagon receptor [7] = biological target: T1, human glucagon receptor; assay: as above
mouse glucagon receptor [8] = biological target: T7, mouse glucagon receptor (mouse (Mus musculus), UniProt Q61606 27-485); assay: as above
T7 construct: also called mouse GCGR; Murine

rat glucagon receptor [9] = biological target: T5, rat glucagon receptor; assay: cell-based or functional assay
[10] = biological target: T6, cynomolgus glucagon receptor; assay: cell-based or functional assay
human glucagon receptor [11] = biological target: T1, human glucagon receptor; assay: cell-based or functional assay; remark: listed apart in the source
mouse glucagon receptor [12] = biological target: T7, mouse glucagon receptor; assay: cell-based or functional assay

B1: antibody A-21 (antibody, V domains shown)
VH: EVRLVESGGDLVQPGGSLRLSCAASGFTFSSYAMNWVRQAPGKGLEWISYIGSSSSAIYYGDSVKGRFTISRDNAKNSLYLQMNSLRDEDTAVYYCARYRSGWSPLFDFWGQGSLVTVSS
VL: DIQMTQSPSSVSASVGDRVTITCRASQGISSWLAWYQQKPGKAPKLLIYAASSLQSGVPSRFSGSGSGTDFTLTISSLQPEDFATYYCQQANSFPLTFGGGTKVEIK
notes: Human antibody from XenoMouse hybridoma; also called L21H21
IC50 of inhibition of glucagon-induced cAMP production (HTRF, CHO K1 cells expressing the receptor) (human glucagon receptor [1]): 47.2 nM | binding result [2]: no binding | binding result [3]: no binding | binding result [4]: no binding

B2: antibody A-3 (antibody, V domains shown)
VH: QVQLVESGGGVVQPGRSLRLSCAASGFTFSSYGMHWVRQAPGKGLEWVAVMWYDGSNKDYVDSVKGRFTISRDNSKNTLYLQMNRLRAEDTAVYYCAREKDHYDILTGYNYYYGLDVWGQGTTVTVSS
VL: DIQMTQSPSSLSASVGDRVTITCRASQGIRNDLGWYQQKPGKAPKRLIYAASSLQSGVPSRFSGSGSGTEFTLTISSVQPEDFVTYYCLQHNSNPLTFGGGTKVEIK
notes: Human antibody from XenoMouse hybridoma; also called L3H3; antibody 3
Kb (dissociation constant of antibody binding by Schild analysis) (rat glucagon receptor [5]): 3.2 nM | Kb (dissociation constant of antibody binding by Schild analysis) [6]: 5 nM | Kb (dissociation constant of antibody binding by Schild analysis) (human glucagon receptor [7]): 1.6 nM | Kb (dissociation constant of antibody binding by Schild analysis) (mouse glucagon receptor [8]): 0.5 nM | IC50 of inhibition of glucagon-induced cAMP production (HTRF, CHO K1 cells expressing the receptor) (rat glucagon receptor [9]): 13.5 nM | IC50 of inhibition of glucagon-induced cAMP production (HTRF, CHO K1 cells expressing the receptor) [10]: 22.5 nM | IC50 of inhibition of glucagon-induced cAMP production (HTRF, CHO K1 cells expressing the receptor) (human glucagon receptor [11]): 9.1 nM | IC50 of inhibition of glucagon-induced cAMP production (HTRF, CHO K1 cells expressing the receptor) (mouse glucagon receptor [12]): 4.9 nM

B3: antibody A-4 (antibody, V domains shown)
VH: B2 VH with R85S
VL: B2 VL with V78L, V84A
notes: Human antibody from XenoMouse hybridoma (IgG2 or IgG4 strains), purified from conditioned medium; also called L4H4; antibody 4
Kb (dissociation constant of antibody binding by Schild analysis) [6]: 5.7 nM | Kb (dissociation constant of antibody binding by Schild analysis) (human glucagon receptor [7]): 1.76 nM | Kb (dissociation constant of antibody binding by Schild analysis) (mouse glucagon receptor [8]): 0.88 nM | IC50 of inhibition of glucagon-induced cAMP production (HTRF, CHO K1 cells expressing the receptor) (rat glucagon receptor [9]): 17.2 nM | IC50 of inhibition of glucagon-induced cAMP production (HTRF, CHO K1 cells expressing the receptor) [10]: 52.1 nM | IC50 of inhibition of glucagon-induced cAMP production (HTRF, CHO K1 cells expressing the receptor) (human glucagon receptor [11]): 18.1 nM | IC50 of inhibition of glucagon-induced cAMP production (HTRF, CHO K1 cells expressing the receptor) (mouse glucagon receptor [12]): 10.1 nM
